Laboratory results published in IntAct's records for PubMed 25910212.

B1: ATP synthase mitochondrial F1 complex assembly factor 2 (Homo sapiens), Q8N5M1 (parent)
chain: MWRSCLRLRDGGRRLLNRPAGGPSASMSPGPTIPSPARAYAPPTERKRFYQNVSITQGEGGFEINLDHRKLKTPQAKLFTVPSEALAIAVATEWDSQQDTIKYYTMHLTTLCNTSLDNPTQRNKDQLIRAAVKFLDTDTICYRVEEPETLVELQRNEWDPIIEWAEKRYGVEISSSTSIMGPSIPAKTREVLVSHLASYNTWALQGIEFVAAQLKSMVLTLGLIDLRLTVEQAVLLSRLEEEYQIQKWGNIEWAHDYELQELRARTAAGTLFIHLCSESTTVKHKLLKE
partner: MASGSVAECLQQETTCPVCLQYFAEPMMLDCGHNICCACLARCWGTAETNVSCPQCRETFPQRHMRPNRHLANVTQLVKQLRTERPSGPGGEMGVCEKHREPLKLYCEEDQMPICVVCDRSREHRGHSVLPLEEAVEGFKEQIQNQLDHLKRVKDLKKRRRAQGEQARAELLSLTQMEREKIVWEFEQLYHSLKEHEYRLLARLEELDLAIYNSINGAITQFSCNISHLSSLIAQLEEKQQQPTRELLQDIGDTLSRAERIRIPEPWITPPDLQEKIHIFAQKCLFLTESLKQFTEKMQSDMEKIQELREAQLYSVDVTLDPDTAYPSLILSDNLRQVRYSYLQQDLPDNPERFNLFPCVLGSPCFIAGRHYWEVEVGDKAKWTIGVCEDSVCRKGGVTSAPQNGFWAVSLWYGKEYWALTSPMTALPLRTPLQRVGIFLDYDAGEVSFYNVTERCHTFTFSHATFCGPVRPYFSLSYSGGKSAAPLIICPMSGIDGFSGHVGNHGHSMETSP
B2: U4/U6 small nuclear ribonucleoprotein Prp31 (Homo sapiens), Q8WWY3 (parent)
chain: MSLADELLADLEEAAEEEEGGSYGEEEEEPAIEDVQEETQLDLSGDSVKTIAKLWDSKMFAEIMMKIEEYISKQAKASEVMGPVEAAPEYRVIVDANNLTVEIENELNIIHKFIRDKYSKRFPELESLVPNALDYIRTVKELGNSLDKCKNNENLQQILTNATIMVVSVTASTTQGQQLSEEELERLEEACDMALELNASKHRIYEYVESRMSFIAPNLSIIIGASTAAKIMGVAGGLTNLSKMPACNIMLLGAQRKTLSGFSSTSVLPHTGYIYHSDIVQSLPPDLRRKAARLVAAKCTLAARVDSFHESTEGKVGYELKDEIERKFDKWQEPPPVKQVKPLPAPLDGQRKKRGGRRYRKMKERLGLTEIRKQANRMSFGEIEEDAYQEDLGFSLGHLGKSGSGRVRQTQVNEATKARISKTLQRTLQKQSVVYGGKSTIRDRSSGTASSVAFTPLQGLEIVNPQAAEKKVAEANQKYFSSMAEFLKVKGEKSGLMST
partner: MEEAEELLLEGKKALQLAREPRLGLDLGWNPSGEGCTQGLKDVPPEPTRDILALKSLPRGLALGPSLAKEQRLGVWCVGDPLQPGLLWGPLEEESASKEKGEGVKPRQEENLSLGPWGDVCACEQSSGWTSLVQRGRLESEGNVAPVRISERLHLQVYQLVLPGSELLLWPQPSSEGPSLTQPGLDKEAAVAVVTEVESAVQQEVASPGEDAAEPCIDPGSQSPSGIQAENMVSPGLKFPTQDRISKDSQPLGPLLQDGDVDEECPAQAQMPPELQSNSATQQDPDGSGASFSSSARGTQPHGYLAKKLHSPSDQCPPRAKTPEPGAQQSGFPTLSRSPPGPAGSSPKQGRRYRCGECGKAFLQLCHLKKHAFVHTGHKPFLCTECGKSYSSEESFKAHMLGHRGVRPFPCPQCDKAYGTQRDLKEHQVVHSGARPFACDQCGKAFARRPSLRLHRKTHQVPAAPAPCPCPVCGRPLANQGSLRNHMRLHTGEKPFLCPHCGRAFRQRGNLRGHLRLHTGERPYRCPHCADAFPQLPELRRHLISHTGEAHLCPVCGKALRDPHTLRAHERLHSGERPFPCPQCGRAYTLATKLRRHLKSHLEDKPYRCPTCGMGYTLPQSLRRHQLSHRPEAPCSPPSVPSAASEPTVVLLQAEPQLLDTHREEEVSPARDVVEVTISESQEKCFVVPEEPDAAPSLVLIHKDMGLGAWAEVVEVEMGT
B3: H/ACA ribonucleoprotein complex subunit 3 (Homo sapiens), Q9NPE3 (parent)
chain: MFLQYYLNEQGDRVYTLKKFDPMGQQTCSAHPARFSPDDKYSRHRITIKKRFKVLMTQQPRPVL
partner: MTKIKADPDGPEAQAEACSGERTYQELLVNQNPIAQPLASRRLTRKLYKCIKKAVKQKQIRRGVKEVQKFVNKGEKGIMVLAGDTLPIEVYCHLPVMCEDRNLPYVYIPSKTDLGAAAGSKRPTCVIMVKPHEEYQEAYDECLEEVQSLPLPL
B4: DNA mismatch repair protein Mlh1 (Homo sapiens), P40692 (parent)
chain: MSFVAGVIRRLDETVVNRIAAGEVIQRPANAIKEMIENCLDAKSTSIQVIVKEGGLKLIQIQDNGTGIRKEDLDIVCERFTTSKLQSFEDLASISTYGFRGEALASISHVAHVTITTKTADGKCAYRASYSDGKLKAPPKPCAGNQGTQITVEDLFYNIATRRKALKNPSEEYGKILEVVGRYSVHNAGISFSVKKQGETVADVRTLPNASTVDNIRSIFGNAVSRELIEIGCEDKTLAFKMNGYISNANYSVKKCIFLLFINHRLVESTSLRKAIETVYAAYLPKNTHPFLYLSLEISPQNVDVNVHPTKHEVHFLHEESILERVQQHIESKLLGSNSSRMYFTQTLLPGLAGPSGEMVKSTTSLTSSSTSGSSDKVYAHQMVRTDSREQKLDAFLQPLSKPLSSQPQAIVTEDKTDISSGRARQQDEEMLELPAPAEVAAKNQSLEGDTTKGTSEMSEKRGPTSSNPRKRHREDSDVEMVEDDSRKEMTAACTPRRRIINLTSVLSLQEEINEQGHEVLREMLHNHSFVGCVNPQWALAQHQTKLYLLNTTKLSEELFYQILIYDFANFGVLRLSEPAPLFDLAMLALDSPESGWTEEDGPKEGLAEYIVEFLKKKAEMLADYFSLEIDEEGNLIGLPLLIDNYVPPLEGLPIFILRLATEVNWDEEKECFESLSKECAMFYSIRKQYISEESTLSGQQSEVPGSIPNSWKWTVEHIVYKALRSHILPPKHFTEDGNILQLANLPDLYKVFERC
partner: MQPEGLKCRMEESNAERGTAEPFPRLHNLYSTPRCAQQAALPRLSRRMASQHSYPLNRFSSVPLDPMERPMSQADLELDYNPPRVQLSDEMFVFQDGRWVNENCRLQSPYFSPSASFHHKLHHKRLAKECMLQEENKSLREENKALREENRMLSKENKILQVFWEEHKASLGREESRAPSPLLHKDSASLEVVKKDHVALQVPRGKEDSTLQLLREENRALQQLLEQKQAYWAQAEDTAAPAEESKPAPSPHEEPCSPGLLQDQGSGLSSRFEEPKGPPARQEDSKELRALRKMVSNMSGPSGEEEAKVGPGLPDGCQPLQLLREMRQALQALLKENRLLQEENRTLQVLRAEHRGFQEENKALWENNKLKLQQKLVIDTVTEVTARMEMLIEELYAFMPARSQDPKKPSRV
B5: Mothers against decapentaplegic homolog 3 (Homo sapiens), P84022 (parent)
chain: MSSILPFTPPIVKRLLGWKKGEQNGQEEKWCEKAVKSLVKKLKKTGQLDELEKAITTQNVNTKCITIPRSLDGRLQVSHRKGLPHVIYCRLWRWPDLHSHHELRAMELCEFAFNMKKDEVCVNPYHYQRVETPVLPPVLVPRHTEIPAEFPPLDDYSHSIPENTNFPAGIEPQSNIPETPPPGYLSEDGETSDHQMNHSMDAGSPNLSPNPMSPAHNNLDLQPVTYCEPAFWCSISYYELNQRVGETFHASQPSMTVDGFTDPSNSERFCLGLLSNVNRNAAVELTRRHIGRGVRLYYIGGEVFAECLSDSAIFVQSPNCNQRYGWHPATVCKIPPGCNLKIFNNQEFAALLAQSVNQGFEAVYQLTRMCTIRMSFVKGWGAEYRRQTVTSTPCWIELHLNGPLQWLDKVLTQMGSPSIRCSSVS
partner: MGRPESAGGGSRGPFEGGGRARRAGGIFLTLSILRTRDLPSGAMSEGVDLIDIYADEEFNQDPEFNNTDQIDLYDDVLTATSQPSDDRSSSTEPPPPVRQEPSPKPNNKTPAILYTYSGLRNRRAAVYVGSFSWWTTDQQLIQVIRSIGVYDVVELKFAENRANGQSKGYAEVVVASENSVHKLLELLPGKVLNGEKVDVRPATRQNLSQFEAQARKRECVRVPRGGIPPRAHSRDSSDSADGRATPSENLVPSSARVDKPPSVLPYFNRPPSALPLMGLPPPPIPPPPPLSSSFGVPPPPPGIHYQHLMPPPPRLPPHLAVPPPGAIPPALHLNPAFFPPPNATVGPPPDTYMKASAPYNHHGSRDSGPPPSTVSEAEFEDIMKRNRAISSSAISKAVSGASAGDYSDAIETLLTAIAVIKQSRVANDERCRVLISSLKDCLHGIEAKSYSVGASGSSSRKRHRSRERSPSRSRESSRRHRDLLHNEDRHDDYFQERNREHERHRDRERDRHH
B6: U4/U6 small nuclear ribonucleoprotein Prp31 (Homo sapiens), Q8WWY3 (parent)
chain: B2 chain
partner: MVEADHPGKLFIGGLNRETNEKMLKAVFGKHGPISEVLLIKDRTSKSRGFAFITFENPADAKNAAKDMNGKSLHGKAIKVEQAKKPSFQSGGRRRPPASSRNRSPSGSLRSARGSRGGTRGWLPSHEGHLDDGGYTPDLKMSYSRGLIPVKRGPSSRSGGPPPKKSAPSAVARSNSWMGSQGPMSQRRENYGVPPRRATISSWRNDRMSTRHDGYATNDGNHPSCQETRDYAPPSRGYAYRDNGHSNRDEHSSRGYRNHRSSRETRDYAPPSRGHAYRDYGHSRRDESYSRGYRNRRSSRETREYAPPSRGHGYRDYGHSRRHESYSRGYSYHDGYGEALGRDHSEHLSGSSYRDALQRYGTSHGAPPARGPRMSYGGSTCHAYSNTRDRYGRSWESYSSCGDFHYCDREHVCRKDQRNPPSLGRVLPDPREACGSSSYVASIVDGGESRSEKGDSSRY
B7: Retinol dehydrogenase 12 (Homo sapiens), Q96NR8 (parent)
chain: MLVTLGLLTSFFSFLYMVAPSIRKFFAGGVCRTNVQLPGKVVVITGANTGIGKETARELASRGARVYIACRDVLKGESAASEIRVDTKNSQVLVRKLDLSDTKSIRAFAEGFLAEEKQLHILINNAGVMMCPYSKTADGFETHLGVNHLGHFLLTYLLLERLKVSAPARVVNVSSVAHHIGKIPFHDLQSEKRYSRGFAYCHSKLANVLFTRELAKRLQGTGVTTYAVHPGVVRSELVRHSSLLCLLWRLFSPFVKTAREGAQTSLHCALAEGLEPLSGKYFSDCKRTWVSPRARNNKTAERLWNVSCELLGIRWE

Variants of: B1
Conditions: with tri27_human TRIM27, P14373

Variant	effect of a mutation on the interaction
W94R	disrupting interaction strength

Variants of: B2
Conditions: with zn408_human ZNF408, Q9H9D4

Variant	effect of a mutation on the interaction
L107V	with no effect

Variants of: B3
Conditions: with nhp2_human NHP2, Q9NX24

Variant	effect of a mutation on the interaction
R34W	with no effect

Variants of: B4
Conditions: with CBY2, Q8NA61-2

Variant	effect of a mutation on the interaction
S44F	disrupting interaction strength
R472I	with no effect
G244D	with no effect

Variants of: B5
Conditions: with CPSF7, Q8N684-3

Variant	effect of a mutation on the interaction
N197I	with no effect
I170V	with no effect

Variants of: B6
Conditions: with RBMY1A1, P0DJD3-2

Variant	effect of a mutation on the interaction
L107V	with no effect

Variants of: B7
Conditions: with RBPMS

Variant	effect of a mutation on the interaction
T49M	with no effect
L99I	with no effect
